Assay [1] deals with T1, CEE peptide tag, sequence EYMPME.
T1 construct: Tested only as the C-terminal tag of the other species' IL-31-CEE, not as a free peptide; also called CEE tag
T1 peptide: EYMPME
Description: ELISA on plate bound mIL-31-CEE (tag tested as part of that protein). On the technique in general: In an ELISA, binding on a coated surface is turned into a signal by an enzyme label.

The target in assay [2] is T2, IL-31-CEE: purified, recombinant human IL-31 fused at the C-terminal with a peptide consisting of the … (human, UniProt Q6EBC2 24-164).
T2 sequence: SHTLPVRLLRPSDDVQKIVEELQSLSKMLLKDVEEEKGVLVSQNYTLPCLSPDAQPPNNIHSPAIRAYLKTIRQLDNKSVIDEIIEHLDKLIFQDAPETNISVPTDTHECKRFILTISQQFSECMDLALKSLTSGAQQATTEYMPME
The assay is described as follows: cell-based or functional assay.

Assay [3] deals with T3, mIL31-CEE: purified, recombinant mouse IL-31 (produced in BHK cells) fused at the C-terminus with a peptide … (mouse, UniProt Q6EAL8 31-163).
T3 construct: Biotinylated in the capture ELISA
T3 sequence: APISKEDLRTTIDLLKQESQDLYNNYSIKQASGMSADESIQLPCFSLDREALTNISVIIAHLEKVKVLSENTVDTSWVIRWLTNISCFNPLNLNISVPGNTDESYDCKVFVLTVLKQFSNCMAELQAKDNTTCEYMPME
The assay is described as follows: ELISA on plate bound mIL-31-CEE, first round clone supernatant.

Assay [4] has as its target T2, IL-31-CEE: purified, recombinant human …. Description: capture ELISA: mAb of first round clone supernatant captured on anti-mouse IgG Fc, biotinylated IL-31-CEE. As to the method:
These new supernatants were tested using the cell-based neutralization assay (serial 3-fold dilutions starting with neat supernatant and proceeding to a final 1:243 dilution) as well as a “capture” style ELISA assay similar to that used in the development of the rat anti-murine IL-31 mAbs with the following differences; 1) sheep anti-mouse IgG, Fc specific antibody (Jackson Immunoresearch) (1 ug/mL) as plate coating antibody, 2) plates blocked once with PBS-Tween+1% BSA for 1 hr, 3) a single titration of each supernatant added to wells (serial 3-fold dilutions starting with neat supernatant and proceeding to a final 1:2187 dilution), and 4) addition of biotinylated IL-31-CEE (3:1 molar ratio of biotin:protein), 200 ng/mL. This assay was felt to be more pertinent than the binding of antibody to plate bound IL-31-CEE as it assessed the ability of antibody to bind to IL-31-CEE in solution, a property essential to a good antibody for sandwich style ELISAs. It was in fact observed that a number of the master wells supernatants containing antibody that bound well to plate bound IL-31-CEE poorly recognized this molecule in solution.
To reduce the number of hybridomas going into further subcloning, two new assays were performed with exhausted supernatant from each of the selected first round clones. […]

B1: mouse anti-human IL-31 mAb from clone 292.12.3.1 (ATCC Patent Deposit Designation PTA-6815) (antibody, mouse IgG1, V domains shown)
VH: QVQLQQSGAELARPGASVNLSCKASGYTLTRYWMQWVKQRPGQGLEWIGAIYPGDGDTRYSQKFKGKATLTADKSSSTAYMQLNNLASEDSAVYYCAFPDGYYAAPYGMDYWGQGTSVTVSS
VL: DIQMTQSPASLSASVGETVTITCRASGNIHNYLAWYQQKQGKSPQLLVYNAKTLADGVPSRFSGSRSETQYSLKINSLQPEDFGSYYCQHFWSTPWTFGGGTKLEIK
notes: Mouse IgG1, kappa; assays used supernatant of first round clone 292.12.3
For the molecule B1, the binding result in assay [1] was “no binding”. In assay [2], the “IC50 (ng/mL), cell-based neutralization (luciferase), IL-31-CEE at 300 pg/mL” value (“IC50 (ng/mL), cell-based neutralization” for short) stood at 1.2 ng/mL and the “IC50 (pM), cell-based neutralization (luciferase), IL-31-CEE at 300 pg/mL” value (from here on “IC50 (pM), cell-based neutralization”) was 7.98 pM. Further, the binding result in assay [3] is given as “no binding”.

B2: mouse anti-human IL-31 mAb from clone 292.72.3.1 (ATCC Patent Deposit Designation PTA-6816) (antibody, mouse IgG2a, V domains shown)
VH: QVQVQQSGAELARPGASVKLSCKASGYTLTRYWMQWVKQRPGQGLEWIGAIYPRDGDTRYSQKFKGKATLTADKSSTTAYMQLSSLASEDSAVYYCAYPDGSYAAPNGMEYWGQGSSVTVSS
VL: DIQMSQSPASLSASVGETVTITCRASGSIHNYLAWYQQKQGKSPQLLVYNAETLADGVPSRFSGSGSGTQYSLKISSLQPEDFGTYYCQHFWITPWTFGGGTKLEIK
notes: Mouse IgG2a; assays used first round clone 292.72.3
In the case of B2, the binding result in assay [1] was “no binding”. In assay [2], the “IC50 (ng/mL), cell-based neutralization” value was 2 ng/mL and the “IC50 (pM), cell-based neutralization” value was found to be 13.3 pM. Besides, the binding result in assay [3] is “no binding”.

B3: mouse anti-human IL-31 mAb from clone 292.84.1.6 (ATCC Patent Deposit Designation PTA-6871) (antibody, V domains shown)
VH: QVQLQQSGAELARPGASVNLSCKASGYTLTRYWMQWVKQRPGQGLEWIGTIYPGDGDTRYSQKFKGKASLTADKSSNTAYMQLNNLASEDSAVYFCAFPDGYYAAPYGMDYWGQGTSVTVSS
VL: DIQMTQSPASLSASVGETVTITCRASGNIHNYLAWYQQKQGRSPQLLVYNAKTLADGVPSRFSGSRSETQYSLKINSLQPEDFGSYYCQHFWSTPWTFGGGTKLEIK
notes: Mouse IgG2a, kappa; Assays used first round clone 292.84.1
As for B3, the binding result in assay [1] and in assay [3] was “no binding” throughout. Further, the “IC50 (ng/mL), cell-based neutralization” value in assay [2] worked out at 1.08 ng/mL. Also, the “IC50 (pM), cell-based neutralization” value in assay [2] is 7.18 pM.

B4: mouse anti-human IL-31 mAb from clone 292.51.5.2 (antibody, mouse IgG1, V domains shown)
VH: EVQLVESGGDLVKPGGSLKLSCAASGFTFSSFVMSWVRQSPEKRLEWVATINSGGYYSFHPDSVKGRFTISRDNAKNTLYLQMSSLRSEDTAIYYCARQEGWSSAYFSYWGQGTLVTVSA
VL: DIVMTQSPSSLAMSVGQKVTMICKSSQSLLNSSNQKNYLAWYQQKPGHSPKLLVSFTSTRESGVPDRFIGSGSGTDFTLTITNMQAEDLADYFCQQHYDTPYTFGGGTKLEIR
notes: Mouse IgG1; assays used first round clone 292.51.5
For B4, the binding result in assay [1] was “no binding”. In addition, in assay [2], the “IC50 (ng/mL), cell-based neutralization” value amounted to 6.48 ng/mL and the “IC50 (pM), cell-based neutralization” value is 43.2 pM. Also, the binding result in assay [3] is “no binding”.

B5: mouse anti-human IL-31 mAb from clone 294.144.3.5 (ATCC Patent Deposit Designation PTA-6873) (antibody, mouse IgG1, V domains shown)
VH: QVQLQQSGPELMKPGASVKISCKATGYTFSTYWIEWIKQRPGHGLEWIGEILPGRGTTNYNAKFQGKATFTAETSSNTAYMQLSSLTSEDSAVYYCTTESKLGDDDYWQGTTLTVSS
VL: ENVLTQSPAIMSASPGERVTMTCSASSSVSYMHWYQQKSSNSPKLWIYDTTKLASGVPGRFSGSGSGNSYSLTISSMEAEDVATYFCFQGSEHPLTFGGGTTLEI
notes: Mouse IgG1
A word on the EC50: it is the midpoint of the concentration-response curve. With B5, the EC50 in assay [4] came to 13.4 ng/mL. Also, the binding result in assay [1] and in assay [3] was “no binding” throughout.

B6: mouse anti-human IL-31 mAb from clone 292.105.4.1 (antibody, mouse IgG1, V domains shown)
VH: EVQLVESGGDLVKPGGSLKLSCAASGFTFSTYIMSWVRQSPEKRLEWVATINSGGYYTLYPDSVKGRFTISRDNAKNTLSLQLSSLRSEDTAMYFCARQEGWSSAWFAYWGQGTLVTVSA
VL: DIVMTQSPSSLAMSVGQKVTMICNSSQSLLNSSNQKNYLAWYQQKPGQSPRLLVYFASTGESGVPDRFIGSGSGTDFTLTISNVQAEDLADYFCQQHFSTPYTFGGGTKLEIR
notes: Mouse IgG1; assays used first round clone 292.105.4
For the molecule B6, the binding result in assay [1] and in assay [3] was “no binding” each time. The “IC50 (ng/mL), cell-based neutralization” value in assay [2] came out at 9.14 ng/mL. In addition, the “IC50 (pM), cell-based neutralization” value in assay [2] was 61 pM.

B7: mouse anti-human IL-31 mAb from clone 292.109.4.4 (antibody, mouse IgG1, V domains shown)
VH: EVQLVESGGDLVKPGGSLKLSCAASGFTFSTYIMSWVRQSPEKRLEWVATINSGGYYTLYPDSVKGRFTISRDNAKNTLSLQLSSLRSEDTAMYFCARQEGWSSAWFAYWGQGTLVTVSA
VL: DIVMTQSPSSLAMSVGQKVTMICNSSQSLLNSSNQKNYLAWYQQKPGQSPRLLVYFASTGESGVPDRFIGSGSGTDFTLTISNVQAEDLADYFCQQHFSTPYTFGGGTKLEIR
notes: Mouse IgG1; assays used first round clone 292.109.4
With B7, in assay [1], the binding result is reported as “no binding”. Further, in assay [2], the “IC50 (ng/mL), cell-based neutralization” value was found to be 8.29 ng/mL and the “IC50 (pM), cell-based neutralization” value stood at 55.2 pM. The binding result in assay [3] was “no binding”.

B8: mouse anti-human IL-31 mAb from clone 292.39.5.3 (antibody, mouse IgG1, V domains shown)
VH: EVQLVESGGDLVKPGGSLKLSCAASGFTFSTYIMSWVRQSPEKRLEWVATINSGGYYTLYPDSVKGRFTISRDNVKNTLSLQLSSLRSEDTAMYFCARQEGWSSAWFAYWGQGTLVTVSA
VL: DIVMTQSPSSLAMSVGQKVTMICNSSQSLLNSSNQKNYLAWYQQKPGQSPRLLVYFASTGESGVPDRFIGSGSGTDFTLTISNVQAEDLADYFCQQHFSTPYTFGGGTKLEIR
notes: Mouse IgG1; assays used first round clone 292.39.5
On to B8, for which the binding result in assay [1] is given as “no binding”. Besides, in assay [2], the “IC50 (ng/mL), cell-based neutralization” value is 8.63 ng/mL and the “IC50 (pM), cell-based neutralization” value worked out at 57.5 pM. Besides, the binding result in assay [3] is reported as “no binding”.

B9: mouse anti-human IL-31 mAb from clone 292.64.6.5.5 (antibody, mouse IgG1, V domains shown)
VH: EVQLVESGGDLVKPGGSLKLSCAASGFTFSTYIMSWVRQSPEKRLEWVATINSGGYYTLYPDSVKGRFTISRDNAKNTLSLQLSSLRSEDTAMYFCARQEGWSSAWFAYWGQGTLVTVSA
VL: DIVMTQSPSSLAMSVGQKVTMICNSSQSLLNSSNQKNYLAWYQQKPGQSPRLLIYFASTGESGVPDRFIGSGSGTDFTLTISNVQAEDLADYFCQQHFSTPYTFGGGTKLEIR
notes: Mouse IgG1; assays used first round clone 292.64.6
As for B9, in assay [4], the EC50 was 3.4 ng/mL. Also, the binding result in assay [1] is “no binding”. In addition, in assay [2], the “IC50 (ng/mL), cell-based neutralization” value came out at 10.1 ng/mL and the “IC50 (pM), cell-based neutralization” value was 67 pM. Also, the binding result in assay [3] is given as “no binding”.

B10: mouse anti-human IL-31 mAb from clone 292.118.6.4 (ATCC Patent Deposit Designation PTA-6830) (antibody, mouse IgG1, V domains shown)
VH: EVQLVESGGGLVKPGGSLKLSCAVSGFTFKTYIMSWVRQSPEKRLEWVATINSGGYYTIYPDSVKGRFTISRDNAKNTLYLQMSSLRSEDTAMYYCARQEGWSSAWFAYWGQGTLVTVSA
VL: DIVMTQSPSSLAMSVGQKVTMICNSSQSLLNSSNQKNYLAWYQQRPGQSPRLLVYFASTGESGVPDRFMGSGSGTDFTLTISNVQAEDLADYFCQQHFSTPYTFGGGTKLEIR
notes: Mouse IgG1; assays used first round clone 292.118.6
For B10, the binding result in assay [1] is “no binding”. Besides, in assay [2], the “IC50 (ng/mL), cell-based neutralization” value was found to be 6.55 ng/mL and the “IC50 (pM), cell-based neutralization” value worked out at 43.7 pM. In addition, the binding result in assay [3] is recorded as “no binding”.

For the origin of these results see patent US20090252732A1 (published 2009).
